The target of assay [1] is T1, Recombinant Human IL-1β (human, UniProt P01584 117-269). The assay can be described thus: cell-based or functional assay.
For assay [2], the target named is T2, Recombinant Human IL-17 (human, UniProt Q16552 20-155, limits assumed).
T2 sequence (looked up): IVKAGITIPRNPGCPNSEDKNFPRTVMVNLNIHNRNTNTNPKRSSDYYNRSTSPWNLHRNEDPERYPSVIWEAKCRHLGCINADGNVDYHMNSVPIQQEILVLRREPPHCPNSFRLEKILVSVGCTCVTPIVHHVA
Put plainly: cell-based or functional assay.

The target of assay [3] is T1, Recombinant Human IL-1β. The assay can be described thus: Biacore SPR; C-terminal VD. In outline:
(§1)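 Antibodies or DVD-Ig were captured at 25 μg/ml on an amine-coupled goat anti-mouse IgG (Fcγ) CM5 surface, with a blank dextran reference. Antigen was injected at 10−200 nM in HBS-EP pH 7.4 at 25° C. A global 1:1 Langmuir fit gave kon and koff, and KD = koff/kon.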
(In SPR one partner is held on a chip, and binding of the other changes the refractive index at the surface.)

For assay [4], the target named is T2, Recombinant Human IL-17. Put plainly: Biacore SPR; N-terminal VD. In outline:
as §1

Assay [5] deals with T2, Recombinant Human IL-17. The assay can be described thus: Biacore SPR; C-terminal VD. In outline: as §1
In assay [6] the target is T1, Recombinant Human IL-1β. The assay can be described thus: Biacore SPR; N-terminal VD. The procedure, abridged: as §1

Bounds are passed on as bounds.

B1: DVD1636 (bispecific antibody, human IgG1, kappa)
heavy: not shown
light: EIVLTQSPDFQSVTPKEKVTITCRASQDIGSELHWYQQKPDQPPKLLIKYASHSTSGVPSRFSGSGSGTDFTLTINGLEAEDAGTYYCHQTDSLPYTFGPGTKVDIKRTVAAPDTVVTQSPAFLSVTPGEKVTITCITSTDIDVDMNWYQQKPDQPPKLLISQGNTLRPGVPSRFSSSGSGTDFTFTISSLEAEDAATYYCLQSDNLPLTFGQGTKLEIKRTVAAPSVFIFPPSDEQLKSGTASVVCLLNNFYPREAKVQWKVDNALQSGNSQESVTEQDSKDSTYSLSSTLTLSKADYEKHKVYACEVTHQGLSSPVTKSFNRGEC
notes: DVD-Ig: outer AB274, inner AB271; V1/V2 vectors: wild type hIgG1, kappa
For B1, the “C-Terminal VD IL-1β Neutralization Assay EC50” value in assay [1] is 27.1 nM. In addition, the “N-terminal VD IL-17 Neutralization Assay EC50” value in assay [2] turned out to be 0.0075 nM. Also, in assay [3], the Kd (commonly a measure of binding affinity in units of concentration) was found to be 0.6 nM; the koff (in general, the first-order rate constant of dissociation) worked out at 0.00063 s⁻¹; the kon (in general, the second-order rate constant of association) was determined as 1e+06 M⁻¹ s⁻¹. Further, in assay [4], the Kd was 0.0046 nM, the koff was 1.9e-05 s⁻¹ and the on-rate constant (kon) came to 4.1e+06 M⁻¹ s⁻¹.

B2: DVD1646 (bispecific antibody, human IgG1, kappa)
heavy: not shown
light: EIVLTQSPDFQSVTPKEKVTITCRASQNIGSELHWYQQKPDQSPKLLIKYASHSISGVPSRFSGSGSGTDFTLTINGLEAEDAATYYCHQSDTLPHTFGQGTKVDIKRTVAAPDTVVTQSPAFLSVTPGEKVTITCITSTDIDVDMNWYQQKPDQPPKLLISQGNTLRPGVPSRFSSSGSGTDFTFTISSLEAEDAATYYCLQSDNLPLTFGQGTKLEIKRTVAAPSVFIFPPSDEQLKSGTASVVCLLNNFYPREAKVQWKVDNALQSGNSQESVTEQDSKDSTYSLSSTLTLSKADYEKHKVYACEVTHQGLSSPVTKSFNRGEC
notes: DVD-Ig: outer AB275, inner AB271; V1/V2 vectors: wild type hIgG1, kappa
As to B2, the “C-Terminal VD IL-1β Neutralization Assay EC50” value in assay [1] amounted to 20.6 nM. The “N-terminal VD IL-17 Neutralization Assay EC50” value in assay [2] worked out at 0.0082 nM. In assay [3], the Kd came to 0.62 nM, the koff is 0.00063 s⁻¹ and the kon stood at 1e+06 M⁻¹ s⁻¹. Moreover, in assay [4], the Kd is 0.012 nM, the koff came to 4.7e-05 s⁻¹ and the kon stood at 3.9e+06 M⁻¹ s⁻¹.

B3: DVD1645 (bispecific antibody, human IgG1, kappa)
heavy: not shown
light: DTVVTQSPAFLSVTPGEKVTITCITSTDIDVDMNWYQQKPDQPPKLLISQGNTLRPGVPSRFSSSGSGTDFTFTISSLEAEDAATYYCLQSDNLPLTFGQGTKLEIKRTVAAPEIVLTQSPDFQSVTPKEKVTITCRASQNIGSELHWYQQKPDQSPKLLIKYASHSISGVPSRFSGSGSGTDFTLTINGLEAEDAATYYCHQSDTLPHTFGQGTKVDIKRTVAAPSVFIFPPSDEQLKSGTASVVCLLNNFYPREAKVQWKVDNALQSGNSQESVTEQDSKDSTYSLSSTLTLSKADYEKHKVYACEVTHQGLSSPVTKSFNRGEC
notes: DVD-Ig: outer AB271, inner AB275; V1/V2 vectors: wild type hIgG1, kappa
As for B3, the “N-Terminal VD IL-1β Neutralization Assay EC50” value in assay [1] was 0.417 nM. In assay [2], the “C-terminal VD IL-17 Neutralization Assay EC50” value is 0.15 nM. Besides, in assay [5], the Kd was found to be 0.65 nM, the koff was 8.1e-05 s⁻¹ and the kon was 120000 M⁻¹ s⁻¹. For the same molecule, in assay [6], the Kd was determined as 0.08 nM, the koff came out at 0.00056 s⁻¹ and the kon worked out at 7e+06 M⁻¹ s⁻¹.

B4: DVD1647 (bispecific antibody, human IgG1, kappa)
heavy: not shown
light: ETTVTQSPSSLSASVGDRVTITCITSTDIDVDMNWYQQKPGKPPKLLISQGNTLRPGVPSRFSSSGSGTDFTFTISSLQPEDFATYYCLQSDNLPLTFGQGTKLEIKRTVAAPEIVLTQSPDFQSVTPKEKVTITCRASQNIGSELHWYQQKPDQSPKLLIKYASHSISGVPSRFSGSGSGTDFTLTINGLEAEDAATYYCHQSDTLPHTFGQGTKVDIKRTVAAPSVFIFPPSDEQLKSGTASVVCLLNNFYPREAKVQWKVDNALQSGNSQESVTEQDSKDSTYSLSSTLTLSKADYEKHKVYACEVTHQGLSSPVTKSFNRGEC
notes: DVD-Ig: outer AB272, inner AB275; V1/V2 vectors: wild type hIgG1, kappa
On to B4, for which, in assay [1], the “N-Terminal VD IL-1β Neutralization Assay EC50” value came to 0.152 nM. The “C-terminal VD IL-17 Neutralization Assay EC50” value in assay [2] is 0.34 nM. Also, in assay [5], the Kd is 0.53 nM, the koff was 9e-05 s⁻¹ and the kon is 170000 M⁻¹ s⁻¹. In assay [6], the Kd came out at 0.083 nM, the koff was 0.00059 s⁻¹ and the kon turned out to be 7.1e+06 M⁻¹ s⁻¹.

B5: DVD1634 (bispecific antibody, human IgG1, kappa)
heavy: not shown
light: EIVLTQSPDFQSVTPKEKVTITCRASQDIGSELHWYQQKPDQPPKLLIKYASHSTSGVPSRFSGSGSGTDFTLTINGLEAEDAGTYYCHQTDSLPYTFGPGTKVDIKRTVAAPDTQVTQSPSSLSASVGDRVTITCITSTDIDVDMNWYQQKPGKPPKLLISQGNTLRPGVPSRFSSSGSGTDFTFTISSLQPEDFATYYCLQSDNLPLTFGQGTKLEIKRTVAAPSVFIFPPSDEQLKSGTASVVCLLNNFYPREAKVQWKVDNALQSGNSQESVTEQDSKDSTYSLSSTLTLSKADYEKHKVYACEVTHQGLSSPVTKSFNRGEC
notes: DVD-Ig: outer AB274, inner AB270; V1/V2 vectors: wild type hIgG1, kappa
As for B5, the “C-Terminal VD IL-1β Neutralization Assay EC50” value in assay [1] is over 12 nM. The “N-terminal VD IL-17 Neutralization Assay EC50” value in assay [2] is 0.0241 nM. Further, in assay [3], the Kd was found to be 0.63 nM, the koff was 0.00055 s⁻¹ and the kon worked out at 870000 M⁻¹ s⁻¹. Moreover, in assay [4], the Kd was 0.0052 nM, the koff was 1.9e-05 s⁻¹ and the on-rate constant (kon) came to 3.7e+06 M⁻¹ s⁻¹.

B6: DVD1638 (bispecific antibody, human IgG1, kappa)
heavy: not shown
light: EIVLTQSPDFQSVTPKEKVTITCRASQDIGSELHWYQQKPDQPPKLLIKYASHSTSGVPSRFSGSGSGTDFTLTINGLEAEDAGTYYCHQTDSLPYTFGPGTKVDIKRTVAAPETTVTQSPSSLSASVGDRVTITCITSTDIDVDMNWYQQKPGKPPKLLISQGNTLRPGVPSRFSSSGSGTDFTFTISSLQPEDFATYYCLQSDNLPLTFGQGTKLEIKRTVAAPSVFIFPPSDEQLKSGTASVVCLLNNFYPREAKVQWKVDNALQSGNSQESVTEQDSKDSTYSLSSTLTLSKADYEKHKVYACEVTHQGLSSPVTKSFNRGEC
notes: DVD-Ig: outer AB274, inner AB272; V1/V2 vectors: wild type hIgG1, kappa
On to B6, for which, in assay [1], the “C-Terminal VD IL-1β Neutralization Assay EC50” value was over 20 nM. The “N-terminal VD IL-17 Neutralization Assay EC50” value in assay [2] is 0.0069 nM. In assay [3], the Kd came to 0.63 nM, the koff was determined as 0.00085 s⁻¹ and the on-rate constant (kon) is 1.3e+06 M⁻¹ s⁻¹. In assay [4], the Kd turned out to be 0.0068 nM, the koff came to 2.7e-05 s⁻¹ and the kon came to 3.9e+06 M⁻¹ s⁻¹.

B7: DVD1640 (bispecific antibody, human IgG1, kappa)
heavy: not shown
light: EIVLTQSPDFQSVTPKEKVTITCRASQNIGSELHWYQQKPDQSPKLLIKYASHSISGVPSRFSGSGSGTDFTLTINGLEAEDAATYYCHQSDTLPHTFGQGTKVDIKRTVAAPDIQMTQSPSSLSASVGDRVTITCRASGNIHNYLTWYQQTPGKAPKLLIYNAKTLADGVPSRFSGSGSGTDYTFTISSLQPEDIATYYCQHFWSIPYTFGQGTKLQITRTVAAPSVFIFPPSDEQLKSGTASVVCLLNNFYPREAKVQWKVDNALQSGNSQESVTEQDSKDSTYSLSSTLTLSKADYEKHKVYACEVTHQGLSSPVTKSFNRGEC
notes: V1/V2 vectors: wild type hIgG1, kappa
For B7, in assay [1], the “C-Terminal VD IL-1β Neutralization Assay EC50” value was 2.85 nM. The “N-terminal VD IL-17 Neutralization Assay EC50” value in assay [2] stood at 0.0061 nM. Also, in assay [3], the Kd stood at 0.09 nM, the koff stood at 1.2e-05 s⁻¹ and the kon turned out to be 130000 M⁻¹ s⁻¹. In assay [4], the Kd worked out at 0.017 nM, the koff was determined as 6.5e-05 s⁻¹ and the kon came out at 3.8e+06 M⁻¹ s⁻¹.

B8: DVD1642 (bispecific antibody, human IgG1, kappa)
heavy: not shown
light: EIVLTQSPDFQSVTPKEKVTITCRASQNIGSELHWYQQKPDQSPKLLIKYASHSISGVPSRFSGSGSGTDFTLTINGLEAEDAATYYCHQSDTLPHTFGQGTKVDIKRTVAAPDIQMTQSPSSLSASVGDRVTITCRASGNIHNYLTWYQQTPGKAPKLLIYNAKTLADGVPSRFSGSGSGTDYTFTISSLQPEDIATYYCQHFWSIPYTFGQGTKLQITRTVAAPSVFIFPPSDEQLKSGTASVVCLLNNFYPREAKVQWKVDNALQSGNSQESVTEQDSKDSTYSLSSTLTLSKADYEKHKVYACEVTHQGLSSPVTKSFNRGEC
notes: as for B7
Turning to B8, the “C-Terminal VD IL-1β Neutralization Assay EC50” value in assay [1] came to 0.628 nM. The “N-terminal VD IL-17 Neutralization Assay EC50” value in assay [2] was 0.0043 nM. Also, in assay [3], the Kd is under 0.001 nM, the koff was under 1e-06 s⁻¹ and the kon was determined as 960000 M⁻¹ s⁻¹. Moreover, in assay [4], the Kd was found to be 0.011 nM, the koff amounted to 4.1e-05 s⁻¹ and the kon was 3.9e+06 M⁻¹ s⁻¹.
